The experiment deals with T1, tumor necrosis factor receptor-associated factor 2 (TRAF2) fused to CFP, YFP or mRFP, Q12933.
T1 chain: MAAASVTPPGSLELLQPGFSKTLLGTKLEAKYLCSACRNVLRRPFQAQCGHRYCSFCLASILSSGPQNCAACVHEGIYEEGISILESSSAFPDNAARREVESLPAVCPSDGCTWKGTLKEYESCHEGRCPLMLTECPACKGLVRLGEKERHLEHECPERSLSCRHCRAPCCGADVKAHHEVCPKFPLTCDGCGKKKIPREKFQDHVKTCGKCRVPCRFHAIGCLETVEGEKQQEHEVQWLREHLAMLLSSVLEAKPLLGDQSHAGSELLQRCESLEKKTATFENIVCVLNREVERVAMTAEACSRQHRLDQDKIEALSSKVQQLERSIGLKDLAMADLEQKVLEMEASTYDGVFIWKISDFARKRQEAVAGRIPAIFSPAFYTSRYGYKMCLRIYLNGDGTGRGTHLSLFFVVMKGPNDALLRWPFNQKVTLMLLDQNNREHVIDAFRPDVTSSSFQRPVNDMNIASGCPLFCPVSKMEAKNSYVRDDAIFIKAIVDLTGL
Briefly: FRET or BRET. The conditions noted are these: remark: other sources report otherwise. (In general: In BRET a luciferase serves as donor, and the signal depends on an acceptor being close.)

B1: tumor necrosis factor receptor-associated factor 2 (TRAF2) fused to CFP, YFP or mRFP, Q12933 1-501 (natural protein)
chain: MAAASVTPPGSLELLQPGFSKTLLGTKLEAKYLCSACRNVLRRPFQAQCGHRYCSFCLASILSSGPQNCAACVHEGIYEEGISILESSSAFPDNAARREVESLPAVCPSDGCTWKGTLKEYESCHEGRCPLMLTECPACKGLVRLGEKERHLEHECPERSLSCRHCRAPCCGADVKAHHEVCPKFPLTCDGCGKKKIPREKFQDHVKTCGKCRVPCRFHAIGCLETVEGEKQQEHEVQWLREHLAMLLSSVLEAKPLLGDQSHAGSELLQRCESLEKKTATFENIVCVLNREVERVAMTAEACSRQHRLDQDKIEALSSKVQQLERSIGLKDLAMADLEQKVLEMEASTYDGVFIWKISDFARKRQEAVAGRIPAIFSPAFYTSRYGYKMCLRIYLNGDGTGRGTHLSLFFVVMKGPNDALLRWPFNQKVTLMLLDQNNREHVIDAFRPDVTSSSFQRPVNDMNIASGCPLFCPVSKMEAKNSYVRDDAIFIKAIVDLTGL
In the case of B1, the FRET1 (CFP→YFP) MFI, cells with CFP-TRAF2, YFP-TRAF2 and mRFP amounted to 10.9 MFI; the FRET3 (CFP→mRFP) MFI, cells with CFP-TRAF2, YFP and mRFP-TRAF2 worked out at 32.7 MFI; the stoichiometry N (in general, a count of units in the complex or per binding partner) stood at 3; the two-step FRET (CFP→YFP→mRFP) MFI, cells with CFP-TRAF2, YFP-TRAF2 and mRFP-TRAF2 turned out to be 58.6 MFI.

(Values after PMC1074310.)
